In patent publication US20220025003A1, “REAGENTS AND METHODS FOR CONTROLLING PROTEIN FUNCTION AND INTERACTION” (University of Washington, priority 2018, published 2022):
Values joined by “and” are separate entries in the source; they are usually repeats but may differ in a detail not shown here. Identical values can stand only once.

B1: G3: computational design on DHR18 scaffold binding grazoprevir/NS3a complex, SEQ ID NO: 12 (protein)
chain: DIEKLCKKAEEEAKEAQEKADELRQRHPDSQAAEDAEDLANEAEAAVLAACSLAQEHPNADIAKLCIKAASEAAEAASKAAELAQRHPDSQAARDAIKLASQAARAVILAIMLAAENPNADIAKLCIKAASEAAEAASKAAELAQRHPDSQAARDAIKLASQAAEAVERAIWLAAENPNADIAKKCIKAASEAAEEASKAAEEAQRHPDSQKARDEIKEASQKAEEVKERCKS
B2: GNCR1: grazoprevir/NS3a complex reader 1, 4 mutations from G3, SEQ ID NO: 11 (protein)
chain: DIEKLCKKAEEEAKEAQEKADELRQRHPDSQAAEDAEDLANLAVAAVLTACLLAQEHPNADIAKLCIKAASEAAEAASKAAELAQRHPDSQAARDAIKLASQAARAVILAIMLAAENPNADIAKLCIKAASEAAEAASKAAELAQRHPDSQAARDAIKLASQAAEAVERAIWLAAENPNADIAKKCIKAASEAAEEASKAAEEAQRHPDSQKARDEIKEASQKAEEVKERCKS
B3: D5: computational design on DHR79 scaffold binding danoprevir/NS3a complex, SEQ ID NO: 10 (protein)
chain: SSDEEEARELIERAKEAAERAQEAAERTGDPRVRELARELKRLAQEAAEEVKRDPSSSDVNEALKLIVEAIEAAVDALEAAERTGDPEVRELARELVRLAVEAAEEVQRNPSSSDVNEALLTIVIAIEAAVNALEAAERTGDPEVRELARELVRLAVEAAEEVQRNPSSREVNIALWKIVLAIQEAVESLREAEESGDPEKREKARERVREAVERAEEVQRDPSGWLNH
B4: DNCR2: danoprevir/NS3a complex reader, final variant with 14 mutations from D5, SEQ ID NO: 8 (protein)
chain: SSDEEEARELIERAKEAAERAQEAAERTGDPRVRELARELKRLAQEAAEEVKRDPSSSDVNEALKLIVEAIEAAVDALEAAERTGDPEVRELARELVRLAVEAAEEVQRNPSSSDVNEALHSIVYAIEAAIFALEAAERTGDPEVRELARELVRLAVEAAEEVQRNPSSRNVEHALMRIVLAIYLAEENLREAEESGDPEKREKARERVREAVERAEEVQRDPSGWLNH
B5: ANR—BFP-CAAX: plasma membrane-targeted ANR-BFP fusion (protein)
chain: MGELDELVYLLDGPGYDPIHSDGSGTGSGTGSGTGTTSGTGTGGSTGGELDELVYLLDGPGYDPIHSDGSGTGSGTGSGTGTTSGTGTGGSTGEQKLISEEDLGSGSSELIKENMHMKLYMEGTVDNHHFKCTSEGEGKPYEGTQTMRIKVVEGGPLPFAFDILATSFLYGSKTFINHTQGIPDFFKQSFPEGFTWERVTTYEDGGVLTATQDTSLQDGCLIYNVKIRGVNFTSNGPVMQKKTLGWEAFTETLYPADGGLEGRNDMALKLVGGSHLIANIKTTYRSKKPAKNLKMPGVYYVDYRLERIKEANNETYVEQHEVAVARYCDLPSKLGHKLNRKHKEKMSKDGKKKKKKSKTKCVIM

Key:
NS3a/asunaprevir complex = target: T1, NS3a/asunaprevir complex (Hepatitis C virus genotype 1a, UniProt P27958, C1073S/C1078L/C1185S/I1043Q/I1044E/I1098T/L1039E/L1040E/L1047Q/L1179I/N1200S/P1112Q/Q1106K/T1100M/T1173A); experiment: Yeast surface display binding and titration; parameters: key to relative binding: +: Relative binding of different NS3a/inhibitor complexes is given for conditions where binding was too weak to achieve full titration curves on yeast, indicating binding in the low-to-mid micromolar-range, or weaker.; ++: Relative binding of different NS3a/inhibitor complexes is given for conditions where binding was too weak to achieve full titration curves on yeast, indicating binding in the low-to-mid micromolar-range, or weaker.; +++: Relative binding of different NS3a/inhibitor complexes is given for conditions where binding was too weak to achieve full titration curves on yeast, indicating binding in the low-to-mid micromolar-range, or weaker; settings: for relative binding / Kd: yeast-displayed design, NS3a/asunaprevir complex; for Kd: apparent, read-out: KD (nM) ± standard deviation
T1 construct: made in house; host or cells: E. coli BL21 (DE3), pDW363 with BirA
Description: (§1) ; these sorts are denoted as “avid” below. […] See FIG. 30a for yeast gating strategies.
(§2) […]. Curves were fit using Graphpad Prism 5 to a one-site specific binding model with Hill coefficient.

NS3a/danoprevir complex = target: T2, NS3a/danoprevir complex (Hepatitis C virus genotype 1a, UniProt P27958, C1073S/C1078L/C1185S/I1043Q/I1044E/I1098T/L1039E/L1040E/L1047Q/L1179I/N1200S/P1112Q/Q1106K/T1100M/T1173A); experiment: Yeast surface display binding and titration; parameters: key to relative binding: +: Relative binding of different NS3a/inhibitor complexes is given for conditions where binding was too weak to achieve full titration curves on yeast, indicating binding in the low-to-mid micromolar-range, or weaker.; ++: Relative binding of different NS3a/inhibitor complexes is given for conditions where binding was too weak to achieve full titration curves on yeast, indicating binding in the low-to-mid micromolar-range, or weaker.; +++: Relative binding of different NS3a/inhibitor complexes is given for conditions where binding was too weak to achieve full titration curves on yeast, indicating binding in the low-to-mid micromolar-range, or weaker; settings: for Fold drug specificity: grazoprevir/NS3a over danoprevir/NS3a; for relative binding / Kd: yeast-displayed design, NS3a/danoprevir complex; for Kd: apparent, read-out: KD (nM) ± standard deviation; for binding to NS3a/danoprevir complex: yeast surface display
T2 construct: made in house; host or cells: E. coli BL21 (DE3), pDW363 with BirA
Description: as §1, §2

NS3a/grazoprevir complex = target: T3, NS3a/grazoprevir complex (Hepatitis C virus genotype 1a, UniProt P27958, C1073S/C1078L/C1185S/I1043Q/I1044E/I1098T/L1039E/L1040E/L1047Q/L1179I/N1200S/P1112Q/Q1106K/T1100M/T1173A); experiment: Yeast surface display binding and titration; parameters: key to relative binding: +: Relative binding of different NS3a/inhibitor complexes is given for conditions where binding was too weak to achieve full titration curves on yeast, indicating binding in the low-to-mid micromolar-range, or weaker.; ++: Relative binding of different NS3a/inhibitor complexes is given for conditions where binding was too weak to achieve full titration curves on yeast, indicating binding in the low-to-mid micromolar-range, or weaker.; +++: Relative binding of different NS3a/inhibitor complexes is given for conditions where binding was too weak to achieve full titration curves on yeast, indicating binding in the low-to-mid micromolar-range, or weaker; settings: for relative binding / Kd: yeast-displayed design, NS3a/grazoprevir complex; for Kd: apparent, read-out: KD (nM) ± standard deviation; for Fold drug specificity: danoprevir/NS3a over grazoprevir/NS3a
T3 construct: made in house; host or cells: E. coli BL21 (DE3), pDW363 with BirA
Description: as §1, §2

apo NS3a = target: T4, apo NS3a (Hepatitis C virus genotype 1a, UniProt P27958, C1073S/C1078L/C1185S/I1043Q/I1044E/I1098T/L1039E/L1040E/L1047Q/L1179I/N1200S/P1112Q/Q1106K/T1100M/T1173A); experiment: Yeast surface display binding
T4 construct: made in house; host or cells: E. coli BL21 (DE3), pDW363 with BirA
Description: as §1, §2

[1] = 100 μM free drug unable to disrupt DNCR2/danoprevir/NS3a complex on yeast
[2] = system: PI3K-Akt signaling in COS-7 cells; experiment: AKT Western blots; type: cell-based; settings: DNCR2 fused to inter-SH2 domain of p85, danoprevir
Description: COS-7 cells (ATCC), were plated in 24-well plates at 2×10^5 cells/mL (0.5 mL volume). […] One day after transfection, cells were washed once with DPBS, and media was replaced with serum-free DMEM. After serum-starving for 22 hours, cells were exposed to a 15-min drug treatment using 12, 3-fold dilutions of danoprevir from 5 μM to 0 μM, in triplicate. After drug treatment, cells were washed once in DPBS, then lysed in 50 μL modified RIPA buffer (50 mM Tris-HCl, pH 7.8, 1% v/v IGEPAL CA-630, 150 mM NaCl, 1 mM EDTA, 1× Pierce Protease Inhibitor Tablet) for 30 minutes on ice. Cell debris was cleared by centrifugation at […] for 10 min at 4° C. Lysate was mixed with protein loading dye and denatured at 95° C. for 7 minutes then run on an SDS-PAGE gel (Criterion, Bio-Rad) and transferred to nitrocellulose. Blocking and primary antibody incubations were done in a 1:1 mix of TBS plus 0.1% v/v Tween-20 (TBST) and blocking buffer (Odyssey). Primary antibodies used were pSER473 AKT (1:2000, Cell Signaling Technologies #4060), and pan-AKT (1:2000, Cell Signaling Technologies #2920). […]

NS3a in NIH3T3 cells = experiment: Confocal microscopy for colocalization analysis (fixed cells); type: cell-based; settings: 5 μM drug, 15 min
[3] = grazoprevir/NS3a over asunaprevir/NS3a
[4] = danoprevir/NS3a over asunaprevir/NS3a

Molecule | Fold drug specificity (NS3a/asunaprevir complex; [3]) | relative binding (NS3a/asunaprevir complex) | Fold drug specificity (NS3a/danoprevir complex) | relative binding (NS3a/danoprevir complex) | specificity for binding grazoprevir/NS3a over NS3a with danoprevir or asunaprevir, or apo NS3a (NS3a/grazoprevir complex; yeast surface display) | relative binding (NS3a/grazoprevir complex) | Kd (NS3a/asunaprevir complex) | Kd (NS3a/danoprevir complex) | binding to NS3a/danoprevir complex (NS3a/danoprevir complex) | Kd (NS3a/grazoprevir complex) | binding to apo NS3a (apo NS3a) | Fold drug specificity (NS3a/asunaprevir complex; [4]) | Fold drug specificity (NS3a/grazoprevir complex) | other results
B1 | modest | + | high | no binding | high specificity | ++ |  |  |  |  |  |  |  | binding to NS3a/grazoprevir complex (NS3a/grazoprevir complex; yeast surface display): modest, grazoprevir-dependent binding
B2 | >71 fold |  | >71 fold |  | high specificity |  | > 10000 nM | > 10000 nM | little-to-no affinity | 140 nM and < 200 nM | little-to-no affinity |  |  | binding to asunaprevir-bound NS3a (NS3a/asunaprevir complex; yeast surface display): little-to-no affinity
B3 |  | + |  | ++ |  | +++ |  |  | modest, drug-dependent binding |  |  | modest | none | 
B4 |  |  |  |  |  |  | 770 ± 50 nM | 0.036 ± 0.0002 nM |  | 2000 ± 100 nM | no detectable binding | 21,000 fold | 56,000 fold | binding to danoprevir alone [1]: does not appear to bind substantially to danoprevir alone; PI3K-Akt signaling activation [2]: capable of activating PI3K-Akt signaling; specificity over NS3a bound to the drugs grazoprevir or asunaprevir (NS3a/danoprevir complex): > 20,000 fold
B5 |  |  |  |  |  |  |  |  |  |  |  |  |  | Colocalization of NS3a-mCherry with ANR-BFP-CAAX or NLS-DNCR2-EGFP (NS3a in NIH3T3 cells): pre-localized NS3a-mCherry™ to the plasma membrane
